Data as given in PMC7048932, “Examining sterically demanding lysine analogs for histone lysine methyltransferase catalysis” (Scientific Reports, 2020).

How the values were obtained:
GLP (human) = GLP (human) (UniProt Q9H9B1)
SETD7 (human) = biological target: T1, SETD7 (human) (UniProt Q8WTS6)
T1 sequence: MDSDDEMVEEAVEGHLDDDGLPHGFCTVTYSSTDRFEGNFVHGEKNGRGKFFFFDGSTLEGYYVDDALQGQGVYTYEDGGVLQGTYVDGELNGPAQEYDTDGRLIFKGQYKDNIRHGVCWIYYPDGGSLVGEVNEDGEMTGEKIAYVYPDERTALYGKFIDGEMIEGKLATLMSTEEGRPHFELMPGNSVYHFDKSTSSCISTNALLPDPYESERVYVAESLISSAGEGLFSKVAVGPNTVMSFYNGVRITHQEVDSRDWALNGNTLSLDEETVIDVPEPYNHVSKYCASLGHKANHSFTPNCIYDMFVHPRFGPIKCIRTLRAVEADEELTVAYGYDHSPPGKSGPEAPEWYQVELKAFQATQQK

G9a (human) = G9a (human) (UniProt Q96KQ7)
Sequence of G9a (human) (Q96KQ7 whole entry): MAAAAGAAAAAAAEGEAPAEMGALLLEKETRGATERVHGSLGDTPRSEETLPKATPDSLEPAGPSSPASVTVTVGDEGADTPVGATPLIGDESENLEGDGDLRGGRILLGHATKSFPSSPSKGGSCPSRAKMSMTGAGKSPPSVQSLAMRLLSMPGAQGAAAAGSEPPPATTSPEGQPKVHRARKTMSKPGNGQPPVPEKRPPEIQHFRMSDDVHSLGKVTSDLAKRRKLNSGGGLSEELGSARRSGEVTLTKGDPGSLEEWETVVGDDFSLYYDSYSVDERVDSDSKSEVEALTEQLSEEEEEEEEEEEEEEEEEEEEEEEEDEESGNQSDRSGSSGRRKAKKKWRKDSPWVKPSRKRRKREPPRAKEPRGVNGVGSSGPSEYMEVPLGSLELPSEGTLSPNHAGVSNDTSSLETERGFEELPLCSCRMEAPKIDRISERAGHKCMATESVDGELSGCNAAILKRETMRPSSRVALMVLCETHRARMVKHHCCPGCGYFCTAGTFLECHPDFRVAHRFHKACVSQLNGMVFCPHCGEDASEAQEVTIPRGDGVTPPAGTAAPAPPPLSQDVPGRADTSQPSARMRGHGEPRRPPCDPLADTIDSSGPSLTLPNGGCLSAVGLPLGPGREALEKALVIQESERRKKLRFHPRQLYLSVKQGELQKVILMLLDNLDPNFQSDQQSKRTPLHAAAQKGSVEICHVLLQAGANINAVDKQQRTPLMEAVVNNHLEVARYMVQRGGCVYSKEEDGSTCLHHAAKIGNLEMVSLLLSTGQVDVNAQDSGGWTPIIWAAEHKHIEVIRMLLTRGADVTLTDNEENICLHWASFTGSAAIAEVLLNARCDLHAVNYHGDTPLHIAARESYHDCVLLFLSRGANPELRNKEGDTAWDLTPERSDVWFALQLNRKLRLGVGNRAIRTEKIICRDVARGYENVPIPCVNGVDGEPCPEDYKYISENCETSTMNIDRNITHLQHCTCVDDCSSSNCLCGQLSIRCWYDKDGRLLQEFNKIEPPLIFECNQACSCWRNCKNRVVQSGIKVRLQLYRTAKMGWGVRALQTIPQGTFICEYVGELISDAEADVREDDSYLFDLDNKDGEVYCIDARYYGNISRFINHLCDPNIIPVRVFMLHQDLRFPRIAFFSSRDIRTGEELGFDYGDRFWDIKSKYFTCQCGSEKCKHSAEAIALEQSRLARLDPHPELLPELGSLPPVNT

Sequence of GLP (human) (Q9H9B1 whole entry): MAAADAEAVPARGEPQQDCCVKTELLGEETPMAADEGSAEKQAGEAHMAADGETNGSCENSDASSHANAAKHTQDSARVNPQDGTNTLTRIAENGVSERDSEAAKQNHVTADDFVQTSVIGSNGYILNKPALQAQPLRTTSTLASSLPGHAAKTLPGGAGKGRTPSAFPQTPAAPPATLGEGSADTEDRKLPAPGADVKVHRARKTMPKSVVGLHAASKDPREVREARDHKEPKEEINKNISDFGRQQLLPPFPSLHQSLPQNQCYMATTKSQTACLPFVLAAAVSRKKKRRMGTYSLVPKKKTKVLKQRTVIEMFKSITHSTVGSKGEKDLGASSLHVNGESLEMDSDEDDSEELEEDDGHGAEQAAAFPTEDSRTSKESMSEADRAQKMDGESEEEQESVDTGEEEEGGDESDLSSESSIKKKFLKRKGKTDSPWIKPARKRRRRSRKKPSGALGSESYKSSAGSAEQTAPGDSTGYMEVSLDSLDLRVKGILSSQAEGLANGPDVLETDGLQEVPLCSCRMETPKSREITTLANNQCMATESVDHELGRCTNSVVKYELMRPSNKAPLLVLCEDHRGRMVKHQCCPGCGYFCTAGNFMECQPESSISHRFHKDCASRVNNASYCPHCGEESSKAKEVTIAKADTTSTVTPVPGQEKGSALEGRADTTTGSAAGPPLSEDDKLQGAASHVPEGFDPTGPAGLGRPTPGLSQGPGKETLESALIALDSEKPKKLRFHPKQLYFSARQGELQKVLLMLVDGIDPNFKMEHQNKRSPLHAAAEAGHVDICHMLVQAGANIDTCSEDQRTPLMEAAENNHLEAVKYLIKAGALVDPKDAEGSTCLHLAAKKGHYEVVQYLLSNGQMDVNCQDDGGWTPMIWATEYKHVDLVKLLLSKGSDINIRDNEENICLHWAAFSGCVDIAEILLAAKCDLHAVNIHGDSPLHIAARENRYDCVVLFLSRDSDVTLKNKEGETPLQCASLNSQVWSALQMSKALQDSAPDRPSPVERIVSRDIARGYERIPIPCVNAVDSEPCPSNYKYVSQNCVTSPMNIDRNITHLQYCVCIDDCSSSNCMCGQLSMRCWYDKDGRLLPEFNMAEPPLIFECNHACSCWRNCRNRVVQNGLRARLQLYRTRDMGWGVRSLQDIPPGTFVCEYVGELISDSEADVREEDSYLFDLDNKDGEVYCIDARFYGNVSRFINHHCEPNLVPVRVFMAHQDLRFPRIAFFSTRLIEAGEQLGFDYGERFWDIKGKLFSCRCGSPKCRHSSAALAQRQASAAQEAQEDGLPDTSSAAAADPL

Substance H3F3a9 histone peptide has an IC50 of inhibition of GLP (100 nM) methylation of a 21-mer H3 peptide (residues 1–21, 5 µM) with SAM (20 µM), MALDI-TOF MS (GLP (human)) of 26 µM.
With “H3K4 analog histone peptide with meta-aminophenylalanine (F3a) at position 4” the IC50 of inhibition of SETD7 (100 nM) methylation of a 21-mer H3 peptide (residues 1–21, 5 µM) with SAM (20 µM), MALDI-TOF MS (SETD7 (human)) was greater than 100 µM.
For H3F4a4 histone peptide, the IC50 of inhibition of SETD7 (100 nM) methylation of a 21-mer H3 peptide (residues 1–21, 5 µM) with SAM (20 µM), MALDI-TOF MS (SETD7 (human)) was greater than 100 µM and the percent inhibition of SETD7 (100 nM) methyltransferase activity at 100 µM peptide, MALDI-TOF MS (SETD7 (human)) was 11%.
Work on “H3K4 analog histone peptide with pyridylalanine (AP) at position 4” yielded an IC50 of inhibition of SETD7 (100 nM) methylation of a 21-mer H3 peptide (residues 1–21, 5 µM) with SAM (20 µM), MALDI-TOF MS (SETD7 (human)) greater than 100 µM.
For H3Kba9 histone peptide, the IC50 of inhibition of G9a (100 nM) methylation of a 21-mer H3 peptide (residues 1–21, 5 µM) with SAM (20 µM), MALDI-TOF MS (G9a (human)) was greater than 100 µM and the IC50 of inhibition of GLP (100 nM) methylation of a 21-mer H3 peptide (residues 1–21, 5 µM) with SAM (20 µM), MALDI-TOF MS (GLP (human)) was greater than 100 µM.
In the case of “H3K4 analog histone peptide with benzylamine (Kba) at position 4”, the IC50 of inhibition of SETD7 (100 nM) methylation of a 21-mer H3 peptide (residues 1–21, 5 µM) with SAM (20 µM), MALDI-TOF MS (SETD7 (human)) is reported as greater than 100 µM.
With H3F4a9 histone peptide the IC50 of inhibition of G9a (100 nM) methylation of a 21-mer H3 peptide (residues 1–21, 5 µM) with SAM (20 µM), MALDI-TOF MS (G9a (human)) was greater than 100 µM and the IC50 of inhibition of GLP (100 nM) methylation of a 21-mer H3 peptide (residues 1–21, 5 µM) with SAM (20 µM), MALDI-TOF MS (GLP (human)) was greater than 100 µM.
H3AP9 histone peptide was tested, and the IC50 of inhibition of G9a (100 nM) methylation of a 21-mer H3 peptide (residues 1–21, 5 µM) with SAM (20 µM), MALDI-TOF MS (G9a (human)) was greater than 100 µM and the IC50 of inhibition of GLP (100 nM) methylation of a 21-mer H3 peptide (residues 1–21, 5 µM) with SAM (20 µM), MALDI-TOF MS (GLP (human)) was greater than 100 µM.
